This series in a line: yeast display, Sf9 membrane polyspecificity reagent, FACS + sequencing; frameworks hold sequencing errors. The gist of the method:
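Synthetic nanobody libraries on Saccharomyces cerevisiae BJ5465 were galactose-induced for 36–48 hours, stained 1 hour at 4 °C with 10% biotinylated, detergent-solubilized Sf9 membrane reagent and enriched on streptavidin microbeads. FACS then separated cells into low and high (top ~1%) gates by anti-HA (expression) and streptavidin (reagent binding) fluorescence. Genes were colony-PCR amplified, MiSeq 2 × 250 sequenced and CDR-length filtered. A clone's polyreactivity label is that of its gate of origin.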
In the case of “QVQLVESGGGLVQPGGSLRLSCAASGRTLHYNVMGWYRQAPGKEREFVAAITKSGGITYYADSVKGRFTISRDNAKNTVYLQMNSLKPEETAVDYCAADSPSWSWRISWSRYDYWGQGTQVTVSS”, the “polyreactivity (PSR sort gate)” value was “low polyreactivity”.

Regarding “QVQLVESGGGLVQAGGSLRLSCAASGLTFRYYAMGWYRQAPGKERELVAAITRRGSTYYADSVKGRFTISRDNAKNTVYLQMNSLKPEDTAVYFCATVTGFHSSPLRDLDYWGHGTQVTVSS”, the “polyreactivity (PSR sort gate)” value was “high polyreactivity”.

For “QVQLVESGGGLVQAGGSLRLSCAASGYIFGYYVMGWYRQAPGKERELVAAITGRGGSTYYADSVKGRFTISRDNAKNTVYLQMNSLKPEDTAVYYCAADATTYPYDPWHLYEIWEYYYWGQGTQVTVSS”, the “polyreactivity (PSR sort gate)” value is on record as “low polyreactivity”.

On to “QVQLVESGGGLVQAGGSLRLSCAASGFIFGVYAMGWYRQAPGKERELVAAISRSGGSTYYADSVKGRFTISRDNAKNTVYLQMNSLKPEDTAVYYCAVRGSWYSEHNYWGQGTQVTVSS”, for which the “polyreactivity (PSR sort gate)” value is “high polyreactivity”.

Take “QVQLVESGGGLFQEGGSLRLSCAASGRIFGPYDMGWYRQAPGKERELVAAISQRGGTTYYADSVKGRFTISRDNAKNTVYLQMNSLKPEVTAVYYCAPKTYGWGQGTQVNVSS”: the “polyreactivity (PSR sort gate)” value is “high polyreactivity”.

With “QVQLVESGGGLVQAGGSLRLSCAASGSTFYLNDMGWYRQAPGKERELVAAIDWSGGSTYYADSVKGRFTISRDNAKNTVYLQMNSLNPEDTAVYYCAARLVYEWRRLDYFIAWDYWGQGTQVTVSS”, the “polyreactivity (PSR sort gate)” value was “low polyreactivity”.

Take “QVQIVESGGGLVQAGGSLRLICAASGIIFEGYAMGWYRQAPGKERELVAAISQSGGSTRYADSVKGRFTISRDNATNTVYLQMNSLKPEDTAVYYFAKEVWNWGPYYYWGQGTQVTVSS”: the “polyreactivity (PSR sort gate)” value was “low polyreactivity”.

Consider “QVKLVESGGGLVQAGGSLRLSCAASGSIFLGNAMGWYRQAPGKERELVATISSSDGSTDYADSVKGRFTISRDNAKNTVYLQMNSLKPEDTEVYYCNADYSYGTTLDYWGQGSQVTVSS”, for which the “polyreactivity (PSR sort gate)” value is “low polyreactivity”.

For “QVQLVESGGGLVQAGGSLRLSCAASGRIFFDYDMGWYRPAPGKERELVAAISSSGDSTYYADSVKGRFTISRDNAKNTVYLQMNSLKPEDTAVYYCNAKSVPVNYVAIKYDYWGQGTQVTVSS”, the “polyreactivity (PSR sort gate)” value was “high polyreactivity”.

Take “QVQLVESGGGLVQAGGSLRLSCAASGIIFLNNAMGLYIQAPGKERELVAVISFIGDSTYYADSVKGRFTISRDNSKNSVYLQMNSLKPEDTAVYYCAADYYLPYWFFVGYDYWGQGTQVTVSS”: the “polyreactivity (PSR sort gate)” value was “low polyreactivity”.

With “QVQLVESGGGLVQAGGSLRLSCAASGRIFFRYAMGWYRQAPGKEREFVAAISGTGGSTYYADSVKGRFTISRDNAKNTVYLQMNSLKPEDTAVYYCAASVVSRPTYYAYYYWGQGTQVTVSS”, the “polyreactivity (PSR sort gate)” value is on record as “high polyreactivity”.

As for “QVQLVESGVALVQAAGSLRLSCAASGSTFGYYTMGWYRQAPGKERELVAAISWSGGSTYYADSVKGRFTISRDHAKTTVYLQMNSLKPEDTAVYFCAAKTNRGSYSYEYWGQGTQVTVSS”, the “polyreactivity (PSR sort gate)” value was “high polyreactivity”.

For “QVQLVESGGGLVQAGRSLRLSCAASGRTFPYNAMGWYRQAPGKERELVAAITWSGGSTYYADSVKGRFTISRDNAKNTVYLQMNSLKAEDTAVYYCNKDFPVFEYDYWGQGTQVTVSS”, the “polyreactivity (PSR sort gate)” value was “low polyreactivity”.

Turning to “QVQLVESGGGLVQAGGSLRLSCAASGSTFYINAMGWYRQAPGKEREFVAAITSRGGSTYYADSVKGRFTISRDNAKNTVYLQMNSLKPEDTAVYYCAARNFLSRRGTYDYWGQGTQVTVSS”, the “polyreactivity (PSR sort gate)” value is reported as “high polyreactivity”.

As for “QVQLVESGGGLVQAGGSLRLSCAASGIIFHFNDMGWYRQAPGKERELVAAITSGGSTNYADSVKGRFTLSRDYAKKTVYLQMNSLKPEDTAVYYCNAEPPRGYTVSSGGEMDYWGQGTQVTVSS”, the “polyreactivity (PSR sort gate)” value is “low polyreactivity”.

On to “QVQLVESGGGLVQAGGSLRLSCAASGFIFTYNAMGWYRQAPGKERELVASIRSTGGSTYYADSVKGRFTISRDNAKNTVYLQMNSLKPEDTAVYYCAARARGTNMYYWGQGTQVTVSS”, for which the “polyreactivity (PSR sort gate)” value is “high polyreactivity”.

“QVQLVESGGGLVQAGGSLRLSCAASGRIGYYAMGWYRQAPGKERELVATISRGGSTKYADSVKGRFTISRDNAKNTVYLQMNSLKPEDTAVYYCAAARAPRYDYWGQGTQVTVSS”: the “polyreactivity (PSR sort gate)” value is listed as “high polyreactivity”.

Take “QVQLVESGGGLVQAGGSLRLSCAASGSTFGSNAMGWYRQAPGKERELVAAIRGIVGSTYYADSVKGRFTISRDNAKNTVYLQMNSLKPEDTAVYYCNKAEVSTYYQTRSTYGGYDYWGQGTQVTVSS”: the “polyreactivity (PSR sort gate)” value is reported as “low polyreactivity”.

Regarding “QVQLVESGGGLVQAGGSLRLSCAASGFIFKYYAMGWYRQAPGKERELVAAIRSGGGTNYADSVKGRFTISRDNAKNTVYLQMNSLKPEDTAVYYCAARGYTSYKHFGYWGQGTQVTVSS”, the “polyreactivity (PSR sort gate)” value is reported as “high polyreactivity”.

As for “VQLVESGGGLVQAGGSLRLSCAACGSTFYPYAMGWYRPAPGKERELVAAISYSGGSTYYADSVKGRFTISRDNAKNTVYLQMNSLKPEDTAVYYCAARYWYKRFVWGDYWGQGTQVTVSS”, the “polyreactivity (PSR sort gate)” value is reported as “high polyreactivity”.

Consider “QVQLVESGGGLVQAGGSLRLSCAASGRIFYRYAMGWYRQAPGKERELVATITSGGGTHYADSVKGRFTISRDNAKNTVYLQMNSLKPEDTAVYYCAAVQWYGYPYYSWGQGTQVTVSS”, for which the “polyreactivity (PSR sort gate)” value is given as “low polyreactivity”.

For the sequence “QVQLVESGGGLVQAGGSLPLSCASSGSTFSTYAMGWYRQAPGKERELVAAIRWSGGSTYYADSVKGRFTLSRDNAKNTVYLLMTSLKPEDTAVYYCAKGIRRWYGGSDYWGQGTQVTVSS”, the “polyreactivity (PSR sort gate)” value is given as “low polyreactivity”.

As to “QVQLVESGGGLVQAGGSLRLSCAASGGIFYLYVMGWYRQAPGKERELVAAITSRGGRTYYADSVKGRFTISRDNAKNTVYLQMNSLKPEDTAVYYCNASQSDIFDYDYWGQGTQVTVSS”, the “polyreactivity (PSR sort gate)” value is “low polyreactivity”.

On to “HLQLVETVGGLDQAGGSLRLSFAASGITSYGYAKGGYSEAAANESELVASISWTGGNTYADSLKGRFTISRDNAKNSVYLQMNSLKPEDSAVYYSNAGRSWDFLYCYEYWGQGTQVTVSS”, for which the “polyreactivity (PSR sort gate)” value is recorded as “low polyreactivity”.

Consider “QVQLVESGGGLVQAGGSLRLSCAASGFISAYYAMGWYRQAPGKERELVAAISWNGGRTFYADSVKGRFTISRDNAKNTVYLQMNSLKPEDTAVYYCAADGRLRGYGYWGQGTQVTVSS”, for which the “polyreactivity (PSR sort gate)” value is given as “high polyreactivity”.

For the sequence “QVQLVESGGGLVQAGGRLRLSCAASGRTFPIYAMGWYRQAPGKERELVAAITRGGRTNYADSVKGRFTISRDNAKNTVYLQMNSLKPEDTAVYYCAARTYGTYLYAEYDYWGQGTQVTVSS”, the “polyreactivity (PSR sort gate)” value is on record as “high polyreactivity”.

For “QVQLVESGGGLVQAGGSLRLSCAASGITIYNYAMGWYRQAPGKERELVAAITRSGGSTYYADSVKGRFTISRDNAKNTVYLQMNSLKPEDTAVYYCATGKYWRYDYWGQGTQVTVSS”, the “polyreactivity (PSR sort gate)” value was “high polyreactivity”.

For the sequence “QVQLQESGGGLVQAGGSPRLSCAASDNIFPDSGMCWYRQAPGKERELVATIGFGATRNYADSVKGRFTISRDNAKNTVYLQMNSLQPEDTAVYYCAADPLNYQYFCYWGQGTQVTVSS”, the “polyreactivity (PSR sort gate)” value is “low polyreactivity”.

Take “KVQLVESGGGFVQAGGSLRLSCAPSGSIFTWNAMGLYRQAPGKERELVAAITRGGSTYADSVKGRFTLSRDNAKNTVYLQMNSLKPEDTAVYYCNAVYGVYEFNYWGQGTQVTVSS”: the “polyreactivity (PSR sort gate)” value is reported as “low polyreactivity”.

Take “QVQLEESGGGLVQAGGSLRLSCAASGRTFDRNTMGWYRQAPGKERELVASITSSGASTYYADSVKGRFTISRDNAKNTVYLQINSLKPVDTSVYYCAARTYTGNYSNSKYYYWGQGTEVTVSS”: the “polyreactivity (PSR sort gate)” value is reported as “high polyreactivity”.

Consider “QVQLVESGGGLVQAGGSLRLSCAASGFIFSSYAMGWYRQAPGKERELVAAINSSGGRTYYADSVKGRFTISRDNAKNTVYLQMNSLKPEDTAVYYCAAVVWSYYVGDDYWGQGTQVTVSS”, for which the “polyreactivity (PSR sort gate)” value is listed as “high polyreactivity”.

On to “QVQLVESGGCLVQARGSLRLSCASSGRMISYNAMGWYRQRPGKDMELGAAINSSGGSTYDADSVKGRFTISRDNAKNTVSLQMNSLKAEDTAFYYCNVLHIPSTTMDYWPQGTQVTVSS”, for which the “polyreactivity (PSR sort gate)” value is listed as “high polyreactivity”.

Take “QVQLVESGGCLVQAGGSHRLSCAASGSIFYIYAMGWYRQAPGKERELVASITFSGDITYYAYSVKGRFTISRDNAKNTFYLHMNSLKPEDTAVYYCAADYHEQSYAVTYDYWGQGTQVTVSS”: the “polyreactivity (PSR sort gate)” value was “low polyreactivity”.

As to “QVQLVESVLGLVQAGGSLRLICDASGSIFGYNVIGWYRQAPGKERELVAAITGRGDSTYYADSVKGRFTISRDNAKNTVYLQMNSLKPEDTAVYYCAAYPNQSEYYYWGQGTQVTVSS”, the “polyreactivity (PSR sort gate)” value is recorded as “low polyreactivity”.

For “QVQLVESGGGLVQAGGSLRLSCAASGFTIYRYALGGYRPAPGKERELVAAISKSGVSTYYADSVKGRFTISRDNAKNTVYLLMNSLKPEDTAVYYCAVSLTYRWISFDYWGQGTQVTVSS”, the “polyreactivity (PSR sort gate)” value is given as “high polyreactivity”.

On to “QVQLVESGGGIVQAGGSLRLSCAASGRIFGWYAMGWYREAPGKERELVAAISSGGRTKYADSVKGRFTISRDNAKNTVYLQMNSLKAEDTAVYYCNARRSYLPYKFGYDYWGQGTQVTVSS”, for which the “polyreactivity (PSR sort gate)” value is “low polyreactivity”.

For the sequence “QVQLVESGGGLVQAGGILRLSCAASGSIFYAYDKGWYRQAPGKERELVAGISSSDSTYYADSVKGRFTISRDNAKNTVYLQLNSLKPEDTAVYYCAADPVFAAAYIHLYGIYDTWGQGTQVTVSS”, the “polyreactivity (PSR sort gate)” value is given as “low polyreactivity”.

For the sequence “QDQLVHSGGGLVQSGGSLRISCAASGFTFYLYGMGRYRQAPGKERDLDAAIDSTGSTNYADSVKGRFTISRDNAKNTVYLQMNSLKPEDTAVYYCAADFYLYYFRSPYDYWGQGTQVTVSS”, the “polyreactivity (PSR sort gate)” value is “high polyreactivity”.

As for “QVQLVESGGGLVQAGASLRLSCAASGSTFPVYAMGWYRQAPGKERELVAAITGSGARTYYADSVKVRFTISRDNAKNTVYLQMNSLKPEDTAVYYCAKRTVIAVYGYPYRYGMNYWGQGTKVTVSS”, the “polyreactivity (PSR sort gate)” value was “high polyreactivity”.

Take “QVQLVESGGGLVQAGGSLRLTCDASGSIIRLYAMVWYRQAPGKERELVDAISYNSGTTYYADSVKGRFTISRDNAKNTVYLQMNSLKPADTAVYYCAARRYYNYDWRQGTQVTVSS”: the “polyreactivity (PSR sort gate)” value was “high polyreactivity”.

Turning to “QVQLVESGGGLVQAGGSLRLSCAASGNTLPQNAMGWYRQAPGKERELVAAISRSGGSTYYADSVKGRFTISRDNAKNTVYLQMNSLKPEDTAVYYCAAKLTVSGYRYGYWGQGTQVTVSS”, the “polyreactivity (PSR sort gate)” value was “high polyreactivity”.
